Reference: patent US20220041738A1 (SAITAMA MEDICAL UNIVERSITY, published 2022)

T1: wild-type human ALK2 on cells (cDNA in pcDEF3) (human, UniProt Q04771 21-509)
T1 construct: also called wild-type ALK2; ALK2 (WT)
T1 sequence: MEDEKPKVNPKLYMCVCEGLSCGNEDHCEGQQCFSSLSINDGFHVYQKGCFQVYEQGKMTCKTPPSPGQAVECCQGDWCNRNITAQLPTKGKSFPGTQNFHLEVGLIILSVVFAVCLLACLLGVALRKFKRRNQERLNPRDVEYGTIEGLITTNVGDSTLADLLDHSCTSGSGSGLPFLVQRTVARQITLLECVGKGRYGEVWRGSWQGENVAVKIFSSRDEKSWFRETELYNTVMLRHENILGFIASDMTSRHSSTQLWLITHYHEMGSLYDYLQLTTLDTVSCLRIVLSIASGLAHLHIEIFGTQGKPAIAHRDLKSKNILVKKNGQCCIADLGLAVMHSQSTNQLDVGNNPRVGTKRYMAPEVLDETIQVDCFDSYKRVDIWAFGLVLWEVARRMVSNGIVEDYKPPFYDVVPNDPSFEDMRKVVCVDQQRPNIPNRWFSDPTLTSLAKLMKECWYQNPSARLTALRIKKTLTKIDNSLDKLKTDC

T2: human ALK2-R258S on cells (human, UniProt Q04771 21-509)
T2 sequence: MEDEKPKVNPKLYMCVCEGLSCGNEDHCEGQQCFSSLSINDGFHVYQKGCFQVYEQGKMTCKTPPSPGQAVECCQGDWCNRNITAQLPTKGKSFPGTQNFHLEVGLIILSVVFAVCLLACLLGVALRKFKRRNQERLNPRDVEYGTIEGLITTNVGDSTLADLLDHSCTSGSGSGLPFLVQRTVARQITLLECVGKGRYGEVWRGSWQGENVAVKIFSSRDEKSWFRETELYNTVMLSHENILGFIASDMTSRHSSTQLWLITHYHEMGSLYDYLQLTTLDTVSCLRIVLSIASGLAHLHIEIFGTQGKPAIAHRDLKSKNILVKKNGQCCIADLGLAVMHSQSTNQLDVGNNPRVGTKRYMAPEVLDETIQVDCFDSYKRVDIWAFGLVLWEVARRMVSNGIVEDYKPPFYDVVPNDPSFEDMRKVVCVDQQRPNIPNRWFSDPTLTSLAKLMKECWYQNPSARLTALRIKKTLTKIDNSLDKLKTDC

T3: human ALK2-G328E on cells (human, UniProt Q04771 21-509)
T3 sequence: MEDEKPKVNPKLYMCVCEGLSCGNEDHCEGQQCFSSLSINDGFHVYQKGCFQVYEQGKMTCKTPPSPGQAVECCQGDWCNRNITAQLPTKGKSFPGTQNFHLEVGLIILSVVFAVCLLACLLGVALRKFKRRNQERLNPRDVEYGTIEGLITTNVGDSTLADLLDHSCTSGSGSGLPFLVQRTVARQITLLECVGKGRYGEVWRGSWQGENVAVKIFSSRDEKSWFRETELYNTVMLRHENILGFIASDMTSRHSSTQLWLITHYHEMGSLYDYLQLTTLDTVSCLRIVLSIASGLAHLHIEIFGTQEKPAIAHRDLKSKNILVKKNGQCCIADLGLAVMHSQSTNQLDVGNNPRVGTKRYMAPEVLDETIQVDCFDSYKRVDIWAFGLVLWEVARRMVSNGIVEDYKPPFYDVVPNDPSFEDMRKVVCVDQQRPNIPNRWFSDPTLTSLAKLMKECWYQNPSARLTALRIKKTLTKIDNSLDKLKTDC

T4: human ALK2-G356D on cells (human, UniProt Q04771 21-509)
T4 sequence: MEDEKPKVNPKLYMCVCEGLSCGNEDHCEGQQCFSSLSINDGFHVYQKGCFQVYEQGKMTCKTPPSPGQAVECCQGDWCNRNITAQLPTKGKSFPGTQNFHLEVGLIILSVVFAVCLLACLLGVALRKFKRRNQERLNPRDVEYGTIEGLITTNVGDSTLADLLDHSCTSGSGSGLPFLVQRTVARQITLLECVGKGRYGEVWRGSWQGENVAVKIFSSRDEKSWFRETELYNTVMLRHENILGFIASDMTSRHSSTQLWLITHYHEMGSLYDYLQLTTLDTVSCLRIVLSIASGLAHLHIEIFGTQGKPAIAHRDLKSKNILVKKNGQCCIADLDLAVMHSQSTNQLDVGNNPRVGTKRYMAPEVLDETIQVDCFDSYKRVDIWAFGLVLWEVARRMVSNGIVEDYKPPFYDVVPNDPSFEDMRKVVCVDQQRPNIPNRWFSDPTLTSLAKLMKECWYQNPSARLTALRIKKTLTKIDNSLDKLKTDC


What was measured:
Test in all cases: immunofluorescence on transfected, formalin-fixed C2C12 cells, IgG at 10 µg/mL, Alexa 594 anti-rat IgG
[1] = target: T1, wild-type human ALK2 on cells (cDNA in …)
Method: (§1) Mouse C2C12 cells were seeded into a 96-well plate (Greiner Bio-One) at 0.5×10³ cells/well, and cultured in 15% FBS-containing DMEM medium overnight under the conditions of 5% CO₂ at 37° C. On the following day, the C2C12 cells were transfected with each of a wild-type human ALK2 cDNA integrated into pcDEF3; pcDEF3/human ALK2-L196P, pcDEF3/human ALK2-P197_F198delinsL, pcDEF3/human ALK2-R202I, pcDEF3/human ALK2-R206H, pcDEF3/human ALK2-Q207E, pcDEF3/human ALK2-R258S, pcDEF3/human ALK2-G325A, pcDEF3/human ALK2-G328E, pcDEF3/human ALK2-G328R, pcDEF3/human ALK2-G328W, pcDEF3/human ALK2-G356D, and pcDEF3/human ALK2-R375P, which are variants identified in FOP; and pcDEF3 as a control, using Lipofectamine 2000 (Invitrogen), and further cultured overnight.
(§2) The C2C12 cells were fixed with 10% neutral formalin (Nacalai Tesque, Japan) for 20 minutes at room temperature, and then blocked with 10% goat normal serum for 30 minutes. After the blocking agent was removed, purified IgG diluted to 10 μg/mL with the blocking agent was added, and the cells were left for 1 hour at room temperature. After the cells were washed with PBS three times, Goat Alexa 594-conjugated anti-rat IgG (Invitrogen) diluted to 1:1000 with the blocking agent was added, and the cells were left for 1 hour at room temperature. After the cells were washed with PBS three times, the cells were fixed with 10% neutral formalin for 15 minutes at room temperature, and nuclear-stained with DAPI (LifeTechnologies). Fluorescent signals were analyzed with a fluorescence microscope BZ-9000 (Keyence).

[2] = target: T2, human ALK2-R258S on cells
Method: as §1, §2

[3] = target: T3, human ALK2-G328E on cells
Method: as §1, §2

[4] = target: T4, human ALK2-G356D on cells
Method: as §1, §2

Row | binding result [1] | binding result [2] | binding result [3] | binding result [4] | Binder
1 | binds | binds | binds | binds | rat anti-ALK2 monoclonal antibody A2-25C (antibody, V domains shown, Rat monoclonal IgG from a hybridoma; also called 25C11) VH: EVQLVESGGGLVQPGGSLKLSCAASGFTFSYYAMSWVCQAPTKGLEWVASISRGGDNTYYRDTVKGRFTTSRDNAKNTLYLQMDSLRSEDTATYYCARLNYNNYFDYWGQGVMVTVSS VL: DIQMTQSPASLSASLEEIVTITCQASQDIGNWLSWYQQKPGKSPQLLIYGATSLADGVPSRFSGSRSGTQYSLKISRLRVEDIGIYYCLQAYSAPFTFGSGTKLEIKR
2 | binds | binds | binds | binds | rat anti-ALK2 monoclonal antibody A2-27D (antibody, V domains shown, Rat monoclonal IgG from a hybridoma; also called 27D11) VH: EVQLVESGGGLVQPGRSLKLSCLASGSTFSNYGMKWIRQAPGKGLEWVASISRSSTYIYYADTVKGRFTISRDNARNTLYLQMTSLRSEDTALYYCAAAISTPFYWYFDFWGPGTVVTVSS VL: EIVLTQSPTTMAASPGEKVTLNCLASSSVSYMTWYQQKSGASPKLWIYGTSNLASGVPNRFSGSGSGTSYSLAISSMEAEDVATYYCLHLTSYPPYTFGAGTKLELKR
